Here are results for one protein from FireProtDB (doi:10.1371/journal.ppat.1004158).

The conditions of the data set: Podospora anserina; pH 7.5; 25 °C; GdnHCl; optical density; whole UniProt chain shown.

B1: Heterokaryon incompatibility protein s wild type, Q03689 (protein)
chain: MSEPFGIVAGALNVAGLFNNCVDCFEYVQLGRPFGRDYERCQLRLDIAKARLSRWGEAVKINDDPRFHSDAPTDKSVQLAKSIVEEILLLFESAQKTSKRYELVADQQDLVVFEDKDMKPIGRALHRRLNDLVSRRQKQTSLAKKTAWALYDGKSLEKIVDQVARFVDELEKAFPIEAVCHKLAEIEIEEVEDEASLTILKDAAGGIDAAMSDAAAQKIDAIVGRNSAKDIRTEERARVQLGNVVTAAALHGGIRISDQTTNSVETVVGKGESRVLIGNEYGGKGFWDN
As for B1, the unfolding free energy was found to be 2.9 kcal/mol.
